In patent US20210373004A1 (BIOASTER, published 2021):

B1: Avitag-RLuc8-ImLeaf-6His (other)
chain: MGLNDIFEAQKIEWHEGGSGGSGGSASKVYDPEQRKRMITGPQWWARCKQMNVLDSFINYYDSEKHAENAVIFLHGNATSSYLWRHVVPHIEPVARCIIPDLIGMGKSGKSGNGSYRLLDHYKYLTAWFELLNLPKKIIFVGHDWGAALAFHYAYEHQDRIKAIVHMESVVDVIESWDEWPDIEEDIALIKSEEGEKMVLENNFFVETVLPSKIMRKLEPEEFAAYLEPFKEKGEVRRPTLSWPREIPLVKGGKPDVVQIVRNYNAYLRASDDLPKLFIESDPGFFSNAIVEGAKKFPNTEFVKVKGLHFLQEDAPDEMGKYIKSFVERVLKNEQGGGSTAGGGGSKRQFADYTEAEFIAFMEDIFRENEAETDDRLDVLLDQFREITGHPDGTDLIYYCESDAECTPERITQKVKSWRAANGLPGFKSTLEGGGSHHHHHH
notes: Immunity protein fused to the luciferase RLuc8 as reporter; added in solution; also called ImLeaf-Rluc8
B2: Avitag-RLuc8-ImKhan-6His (other)
chain: MGLNDIFEAQKIEWHEGGSGGSGGSASKVYDPEQRKRMITGPQWWARCKQMNVLDSFINYYDSEKHAENAVIFLHGNATSSYLWRHVVPHIEPVARCIIPDLIGMGKSGKSGNGSYRLLDHYKYLTAWFELLNLPKKIIFVGHDWGAALAFHYAYEHQDRIKAIVHMESVVDVIESWDEWPDIEEDIALIKSEEGEKMVLENNFFVETVLPSKIMRKLEPEEFAAYLEPFKEKGEVRRPTLSWPREIPLVKGGKPDVVQIVRNYNAYLRASDDLPKLFIESDPGFFSNAIVEGAKKFPNTEFVKVKGLHFLQEDAPDEMGKYIKSFVERVLKNEQGGGSTAGGGGSELKNKLEDYTEAEFLSLLNKIWAVDVSEEEHDNLIDHFEKLSEHPNGNGLIFYPENGVEDSPEGVLKVIKEWRAKNGKPGFKKLEGGGSHHHHHH
notes: Immunity protein fused to the luciferase RLuc8 as reporter; added in solution; also called ImKhan-Rluc8; ImKahn
B3: Myc-RLuc8-ImErw-Avitag-6His (other)
chain: MGGEQKLISEEDLGGSASKVYDPEQRKRMITGPQWWARCKQMNVLDSFINYYDSEKHAENAVIFLHGNATSSYLWRHVVPHIEPVARCIIPDLIGMGKSGKSGNGSYRLLDHYKYLTAWFELLNLPKKIIFVGHDWGAALAFHYAYEHQDRIKAIVHMESVVDVIESWDEWPDIEEDIALIKSEEGEKMVLENNFFVETVLPSKIMRKLEPEEFAAYLEPFKEKGEVRRPTLSWPREIPLVKGGKPDVVQIVRNYNAYLRASDDLPKLFIESDPGFFSNAIVEGAKKFPNTEFVKVKGLHFLQEDAPDEMGKYIKSFVERVLKNEQKLPGGSNLKEKLEDYTEAEFISYLKEFFDNPMGLRGKELETHLDSLVEHFDKIVFHPEGNGLIFYPPDERDDSPEGVLNEIKRWRKSQGLPLFKDSKGGSGGSGLNDIFEAQKIEWHELEGGGSHHHHHH
notes: Immunity protein fused to the luciferase RLuc8 as reporter; added in solution; also called ImErw-Rluc8
B4: Myc-RLuc8-ImSyr-Avitag-6His (other)
chain: MGGEQKLISEEDLGGSASKVYDPEQRKRMITGPQWWARCKQMNVLDSFINYYDSEKHAENAVIFLHGNATSSYLWRHVVPHIEPVARCIIPDLIGMGKSGKSGNGSYRLLDHYKYLTAWFELLNLPKKIIFVGHDWGAALAFHYAYEHQDRIKAIVHMESVVDVIESWDEWPDIEEDIALIKSEEGEKMVLENNFFVETVLPSKIMRKLEPEEFAAYLEPFKEKGEVRRPTLSWPREIPLVKGGKPDVVQIVRNYNAYLRASDDLPKLFIESDPGFFSNAIVEGAKKFPNTEFVKVKGLHFLQEDAPDEMGKYIKSFVERVLKNEQKLPGGSIFKEKIEDYTEEEFLEFLKGLSSEYSQLHGDEFIKHMDRSVEHFVKITEHPAQTDVIFYPEEGQEDTPEGILKVIKEWRAKNGKPGFKSGGSGGSGLNDIFEAQKIEWHELEGGGSHHHHHH
notes: Immunity protein fused to the luciferase RLuc8 as reporter; added in solution; also called ImSyr-Rluc8

Tests used:
[1] = target: T1, Flag-mCherry-ColKhan-Cys-6His (Photorhabdus khanii); assay: EIA 8 plex n° 2: colicin coated at 100 nM, Im-RLuc8 at 100 nM, luminescence; light bar alone, dark bar with the 7 other unfused Im proteins
[2] = target: T2, Flag-mCherry-ColAP41-Cys-6His (Pseudomonas aeruginosa AP41); assay: as above
[3] = target: T3, Flag-mCherry-ColErw-Cys-6His (Pectobacterium carotovorum); assay: as above
[4] = target: T4, Flag-mCherry-ColSyr-Cys-6His (Pseudomonas syringae B728A); assay: as above
[5] = target: T5, Flag-EmGFP-ColE2-6His (Escherichia coli); assay: as above
T5 construct: Coated on the plate or sprayed on the membrane; also called Colicin E2

[6] = target: T6, Flag-mCherry-ColE9-6His (Escherichia coli); assay: as above
T6 construct: also called Colicin E9

[7] = target: T7, Flag-mCherry-ColLeaf-Cys-6His (Pseudomonas sp Leaf83); assay: EIA 8 plex n° 2: colicin coated at 100 nM, Im-RLuc8 alone at 100 nM, luciferase signal (FIG. 4, light grey bars)
[8] = target: T2, Flag-mCherry-ColAP41-Cys-6His; assay: EIA 8 plex n° 1: colicin coated at 100 nM, Im-RLuc8 at 100 nM, luminescence; light bar alone, dark bar with the 7 other unfused Im proteins
[9] = target: T4, Flag-mCherry-ColSyr-Cys-6His; assay: as above
[10] = target: T8, Flag-mCherry-ColE8-6His (Escherichia coli); assay: as above
T8 construct: also called Colicin E8

[11] = target: T9, Flag-EmGFP-ColE7-6His (Escherichia coli); assay: as above
T9 construct: also called Colicin E7

[12] = target: T5, Flag-EmGFP-ColE2-6His; assay: as above
[13] = target: T6, Flag-mCherry-ColE9-6His; assay: as above
[14] = target: T1, Flag-mCherry-ColKhan-Cys-6His; assay: EIA 8 plex n° 1: colicin coated at 100 nM, Im-RLuc8 alone at 100 nM, luciferase signal (FIG. 3, light grey bars)
[15] = target: T3, Flag-mCherry-ColErw-Cys-6His; assay: EIA 8 plex n° 1: colicin coated at 100 nM, Im-RLuc8 alone at 100 nM, luciferase signal
[16] = target: T7, Flag-mCherry-ColLeaf-Cys-6His; assay: EIA 8 plex n° 2: colicin coated at 100 nM, Im-RLuc8 at 100 nM, luminescence; light bar alone, dark bar with the 7 other unfused Im proteins
[17] = target: T1, Flag-mCherry-ColKhan-Cys-6His; assay: EIA 8 plex n° 2: colicin coated at 100 nM, Im-RLuc8 alone at 100 nM, luciferase signal (FIG. 4, light grey bars)
[18] = target: T1, Flag-mCherry-ColKhan-Cys-6His; assay: EIA 8 plex n° 1: colicin coated at 100 nM, Im-RLuc8 at 100 nM, luminescence; light bar alone, dark bar with the 7 other unfused Im proteins
[19] = target: T3, Flag-mCherry-ColErw-Cys-6His; assay: EIA 8 plex n° 1: colicin coated at 100 nM, Im-RLuc8 alone at 100 nM, luciferase signal (FIG. 3, light grey bars)
[20] = target: T3, Flag-mCherry-ColErw-Cys-6His; assay: EIA 8 plex n° 2: colicin coated at 100 nM, Im-RLuc8 alone at 100 nM, luciferase signal (FIG. 4, light grey bars)
[21] = target: T3, Flag-mCherry-ColErw-Cys-6His; assay: EIA 8 plex n° 1: colicin coated at 100 nM, Im-RLuc8 at 100 nM, luminescence; light bar alone, dark bar with the 7 other unfused Im proteins
[22] = target: T4, Flag-mCherry-ColSyr-Cys-6His; assay: EIA 8 plex n° 1: colicin coated at 100 nM, Im-RLuc8 alone at 100 nM, luciferase signal (FIG. 3, light grey bars)
[23] = target: T9, Flag-EmGFP-ColE7-6His; assay: EIA 8 plex n° 1: colicin coated at 100 nM, Im-RLuc8 alone at 100 nM, luciferase signal
[24] = target: T4, Flag-mCherry-ColSyr-Cys-6His; assay: EIA 8 plex n° 2: colicin coated at 100 nM, Im-RLuc8 alone at 100 nM, luciferase signal (FIG. 4, light grey bars)

Binder | binding result [1] | binding result [8] | binding result [9] | binding result [10] | binding result [11] | binding result [12] | binding result [13] | binding result [16] | also measured
B1 | no binding (tested: 100 nM) |  |  |  |  |  |  |  | binding result [2]: no binding (tested: 100 nM); binding result [3]: no binding (tested: 100 nM); binding result [4]: no binding (tested: 100 nM); binding result [5]: no binding (tested: 100 nM); binding result [6]: no binding (tested: 100 nM); RLU [7]: > 2.4e+06 RLU
B2 |  | no binding (tested: 100 nM) | no binding (tested: 100 nM) | no binding (tested: 100 nM) | no binding (tested: 100 nM) | no binding (tested: 100 nM) | no binding (tested: 100 nM) | no binding (tested: 100 nM) | RLU [14]: > 2e+06 RLU; RLU [15]: > 100000 RLU; RLU [17]: > 2.4e+06 RLU
B3 |  | no binding (tested: 100 nM) | no binding (tested: 100 nM) | no binding (tested: 100 nM) | no binding (tested: 100 nM) | no binding (tested: 100 nM) | no binding (tested: 100 nM) | no binding (tested: 100 nM) | binding result [18]: binds; RLU [19]: > 2e+06 RLU; RLU [20]: > 2.4e+06 RLU
B4 | no binding (tested: 100 nM) |  |  | no binding (tested: 100 nM) |  | no binding (tested: 100 nM) | no binding (tested: 100 nM) | no binding (tested: 100 nM) | binding result [21]: no binding (tested: 100 nM); RLU [22]: > 2e+06 RLU; RLU [23]: > 100000 RLU; RLU [24]: > 2.4e+06 RLU
